In patent US20140120095A1 (Boehringer Ingelheim, published 2014):

T1: cynomolgus DLL4 overexpressed on cells (cynomolgus, UniProt Q9NR61 27-685 (human entry))
T1 construct: also called cyno DII4; cDLL4
T1 chain: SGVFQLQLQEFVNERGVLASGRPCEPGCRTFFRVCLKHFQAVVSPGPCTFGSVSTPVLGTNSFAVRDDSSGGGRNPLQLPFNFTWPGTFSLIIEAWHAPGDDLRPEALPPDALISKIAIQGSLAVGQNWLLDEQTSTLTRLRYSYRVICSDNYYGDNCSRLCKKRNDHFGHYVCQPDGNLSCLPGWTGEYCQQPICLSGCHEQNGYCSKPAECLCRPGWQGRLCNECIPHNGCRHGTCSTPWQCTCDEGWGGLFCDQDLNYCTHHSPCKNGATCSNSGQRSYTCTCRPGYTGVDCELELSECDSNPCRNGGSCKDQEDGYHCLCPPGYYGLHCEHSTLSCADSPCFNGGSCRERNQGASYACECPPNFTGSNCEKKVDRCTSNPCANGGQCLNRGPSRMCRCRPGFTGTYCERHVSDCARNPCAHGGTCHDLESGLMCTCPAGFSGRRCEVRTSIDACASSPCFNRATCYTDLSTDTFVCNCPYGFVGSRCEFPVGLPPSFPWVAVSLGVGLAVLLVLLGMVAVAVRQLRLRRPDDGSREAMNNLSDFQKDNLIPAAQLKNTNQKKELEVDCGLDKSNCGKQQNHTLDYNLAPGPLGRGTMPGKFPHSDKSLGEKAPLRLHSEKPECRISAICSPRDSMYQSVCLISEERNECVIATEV

T2: human DLL1 (human, UniProt O00548 18-545, limits assumed)
T2 construct: also called hDLL1
T2 sequence (looked up): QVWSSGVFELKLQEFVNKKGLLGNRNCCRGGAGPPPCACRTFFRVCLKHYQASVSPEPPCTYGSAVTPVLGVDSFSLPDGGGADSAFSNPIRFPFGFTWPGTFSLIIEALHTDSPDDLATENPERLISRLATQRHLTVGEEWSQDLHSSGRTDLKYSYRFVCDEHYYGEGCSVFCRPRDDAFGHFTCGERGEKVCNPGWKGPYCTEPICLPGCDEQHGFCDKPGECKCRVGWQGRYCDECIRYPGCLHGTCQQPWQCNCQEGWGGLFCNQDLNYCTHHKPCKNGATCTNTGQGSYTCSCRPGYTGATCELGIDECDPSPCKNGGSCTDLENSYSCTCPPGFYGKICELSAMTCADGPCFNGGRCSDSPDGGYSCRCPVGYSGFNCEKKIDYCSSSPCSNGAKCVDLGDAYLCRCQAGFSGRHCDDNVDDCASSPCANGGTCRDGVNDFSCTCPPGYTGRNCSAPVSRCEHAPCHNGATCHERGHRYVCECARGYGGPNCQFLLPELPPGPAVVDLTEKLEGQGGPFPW


Legend:
[1] = target: T3, human DLL4, full length, overexpressed on cells (human, UniProt Q9NR61 27-685); test: FMAT, hNotch1-Fc on CHO-hDLL4, -HSA
T3 construct: CHO cells in FMAT, HEK293 cells in the reporter assay; also called hDLL4; CHO-hDLL4

[2] = target: T4, mouse DLL4, full length, overexpressed on CHO cells (mouse, UniProt Q9JI71 27-686); test: FMAT, hNotch1-Fc on CHO-mDLL4, -HSA
T4 construct: whole, on cells; also called mDLL4; CHO-mDLL4

[3] = target: T5, recombinant human VEGF165 (human, UniProt P15692-4 27-191, biotinylated in the competition assays); test: AlphaScreen, hVEGF165/hVEGFR1-Fc competition, -HSA
T5 construct: Bought protein; also called hVEGF165; rhVEGF165
T5 sequence (P15692 other isoform, or with tags, fused parts or gaps): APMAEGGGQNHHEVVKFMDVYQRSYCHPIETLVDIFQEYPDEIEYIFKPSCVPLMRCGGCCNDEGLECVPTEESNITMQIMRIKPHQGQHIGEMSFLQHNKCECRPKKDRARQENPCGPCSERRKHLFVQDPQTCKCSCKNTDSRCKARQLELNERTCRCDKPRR

[4] = target: T5, recombinant human VEGF165; test: AlphaScreen, hVEGF165/hVEGFR2-Fc competition, -HSA
[5] = target: T6, recombinant human DLL4 (human, UniProt Q9NR61 25-522); test: binding ELISA, coated rhDLL4
T6 construct: also called rhDLL4; hDLL4
Method: (§1) In order to determine cross-reactivity to mouse DII4 a binding ELISA is performed. […] Wells are blocked with a casein solution (1% in PBS). VHHs are applied as dilution series and binding is detected using a mouse anti-myc (Roche) and an anti-mouse-AP conjugate (Sigma, St Louis, Mo., USA) (FIG. 7 A-H). As reference, binding to human DII4 is measured.

[6] = target: T7, recombinant mouse DLL4 (mouse, UniProt Q9JI71 27-532); test: binding ELISA, coated rmDLL4
T7 construct: extracellular domain; also called rmDLL4; mDLL4
T7 sequence (Q9JI71 27-532): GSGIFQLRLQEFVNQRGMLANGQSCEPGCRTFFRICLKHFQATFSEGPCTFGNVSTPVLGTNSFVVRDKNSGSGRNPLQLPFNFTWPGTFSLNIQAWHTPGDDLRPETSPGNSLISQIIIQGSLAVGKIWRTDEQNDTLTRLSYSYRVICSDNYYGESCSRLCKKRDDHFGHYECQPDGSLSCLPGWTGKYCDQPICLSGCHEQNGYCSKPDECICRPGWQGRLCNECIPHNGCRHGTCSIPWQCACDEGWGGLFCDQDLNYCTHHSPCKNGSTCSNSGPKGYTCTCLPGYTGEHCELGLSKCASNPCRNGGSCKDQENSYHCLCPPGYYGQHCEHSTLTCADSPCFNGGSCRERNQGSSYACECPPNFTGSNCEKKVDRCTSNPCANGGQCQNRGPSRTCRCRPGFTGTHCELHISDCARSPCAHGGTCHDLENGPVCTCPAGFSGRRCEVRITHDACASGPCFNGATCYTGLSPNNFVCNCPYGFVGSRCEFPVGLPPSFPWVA
Method: as §1

[7] = target: T8, human DLL4 overexpressed on cells (human, UniProt Q9NR61 27-685); test: competitive FMAT, hNotch1-Fc on CHO-hDLL4
T8 construct: full length human DLL4 on CHO or HEK293 cells; also called CHO-hDLL4; CHO-hDII4

[8] = target: T9, mouse DLL4 overexpressed on cells (mouse, UniProt Q9JI71 27-686); test: competitive FMAT, hNotch1-Fc on CHO-mDLL4
T9 construct: whole, on cells; also called CHO-mDLL4; CHO-mDII4
T9 sequence (Q9JI71 27-686): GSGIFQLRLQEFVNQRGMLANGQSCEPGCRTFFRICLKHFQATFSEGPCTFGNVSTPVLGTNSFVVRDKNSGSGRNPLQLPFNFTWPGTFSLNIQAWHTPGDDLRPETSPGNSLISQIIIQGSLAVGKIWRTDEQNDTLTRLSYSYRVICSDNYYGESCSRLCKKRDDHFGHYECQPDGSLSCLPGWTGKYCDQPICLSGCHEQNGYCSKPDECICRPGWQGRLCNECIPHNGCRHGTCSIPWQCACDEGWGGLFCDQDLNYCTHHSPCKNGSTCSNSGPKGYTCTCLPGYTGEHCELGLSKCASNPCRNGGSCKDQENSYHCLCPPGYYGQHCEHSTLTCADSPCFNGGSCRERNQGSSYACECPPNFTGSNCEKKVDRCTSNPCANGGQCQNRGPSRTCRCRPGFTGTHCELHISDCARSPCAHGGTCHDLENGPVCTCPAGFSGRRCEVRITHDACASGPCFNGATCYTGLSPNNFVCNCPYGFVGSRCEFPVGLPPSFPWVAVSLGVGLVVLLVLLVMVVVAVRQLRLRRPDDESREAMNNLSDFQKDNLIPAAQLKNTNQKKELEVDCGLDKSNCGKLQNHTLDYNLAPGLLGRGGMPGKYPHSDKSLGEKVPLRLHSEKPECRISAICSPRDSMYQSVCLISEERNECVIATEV

[9] = target: T6, recombinant human DLL4; test: competition AlphaScreen, biot-hDLL4/hNotch1-Fc
Method: In brief, 1 nM biotinylated human DII4 is captured on streptavidin-coated donor beads (20 μg/mL), while 0.4 nM of the receptor human Notch1 (as a Fc fusion protein) is captured on anti-human Fc VHH-coated acceptor beads (20 μg/mL). Both loaded beads are incubated together with a dilution range of the competing VHH (FIG. 4 A-E).

[10] = target: T8, human DLL4 overexpressed on cells; test: FACS titration on HEK293-hDLL4 cells, MCF
Method: (§2) In order to determine the cynomologus cross-reactivity of the VHHs, a FACS binding experiment is performed. Cynomolgus DII4 expressing HEK293 cells (transient or stable transfection) are used for a titration binding experiment of the VHHs. After a 30 minutes incubation on ice, all samples are washed and detection is performed by applying anti-c-myc˜Alexa647 (Santa Cruz Biotechnology, Santa Cruz, Calif., USA). Human and mouse DII4 overexpressing HEK293 cells are taken as reference. The mean MCF value is determined on the FACS Array and used for calculation of the EC₅₀ value (see FIG. 9 A-E).

[11] = target: T1, cynomolgus DLL4 overexpressed on cells; test: FACS titration on HEK293-cDLL4 cells, MCF
Method: as §2

[12] = target: T6, recombinant human DLL4; test: competition ELISA, biot-hDLL4 to coated hNotch1-Fc
Description: Residual binding of biotinylated human DII4 is detected using horseradish peroxidase (HRP) conjugated extravidin (Sigma, St. Louis, Mo., USA) (FIG. 3 A-C). Human DII4 is biotinylated as described above.

[13] = target: T2, human DLL1; test: binding ELISA on coated recombinant human DLL1, OD 405 nm
Method: (§3) Absence of binding to homologous ligands human DLL1 and human Jagged-1 is assessed via solid phase binding assay (ELISA). In brief, human DLL1 (Alexis, San Diego, Calif., USA) and human Jagged-1 (Alexis, San Diego, Calif., USA) are coated overnight at 4° C. at 1 μg/mL in a 96-well MaxiSorp plate (Nunc, Wiesbaden, Germany). Wells are blocked with a casein solution (1% in PBS). VHHs are applied as dilution series and binding is detected using a mouse anti-myc (Roche) and an anti-mouse-AP conjugate (Sigma, St. Louis, Mo., USA).

[14] = target: T10, human Jagged-1 (human, UniProt P78504 34-1067, limits assumed); test: binding ELISA on coated recombinant human Jagged-1, OD 405 nm
T10 construct: also called hJagged-1; hJAG1
Method: as §3

[15] = target: T6, recombinant human DLL4; test: SPR Biacore T100, hDLL4 on chip, VHH/Fab injected
Method: Kinetic analysis to determine the affinity of the DII4-VHH interaction is performed by Surface Plasmon Resonance (SPR) on a Biacore T100 instrument. […] Purified VHHs or Fab fragment are injected for 2 minutes at different concentrations (between 10 and 300 nM) and allowed to dissociate for 20 min at a flow rate of 45 μl/min. Between sample injections, the surfaces are regenerated with 10 mM glycine pH1.5 and 100 mM HCl. HBS-N (Hepes buffer pH7.4) is used as running buffer. If possible, data are evaluated by fitting a 1:1 interaction model (Langmuir binding) onto the binding curves. The affinity constant KD is calculated from resulting association and dissociation rate constants (kₐ) and […].

Binder | % inh [1] [%] | IC50 [1] [nM] | % inh [2] [%] | IC50 [2] [nM] | EC50 [5] [nM] | EC50 [6] [nM] | IC50 [7] [nM] | IC50 [8] [nM] | IC50 [9] [nM] | EC50 (read off the curve) [10] [nM] | EC50 (read off the curve) [11] [nM] | IC50 [12] [nM] | binding result [13] | binding result [14] | Kd [15] [nM] | koff [15] [s⁻¹] | kon [15] [M⁻¹ s⁻¹] | also measured
A1 (bispecific antibody, PEGylated at the Cys at position 15 of the 35 Gly-Ser linker, VEGFBII038 (N-terminal E missing) - 35GS(Cys15) - DLLBII018) VQLVESGGGLVQPGGSLRLSCAASGRTFSSYSMGWFRQAPGKEREFVVAISKGGYKYDAVSLEGRFTISRDNAKNTVYLQINSLRPEDTAVYYCASSRAYGSSRLRLADTYEYWGQGTLVTVSSGGGGSGGGGSGGGGCGGGGSGGGGSGGGGSGGGGSEVQLVESGGGLVQPGGSLRLSCAASGRTFSSYAMAWYRQAPGKEREYVAAIRWSGGTAYYADSVKGRFTISRDNAKNTVYLQMNSLRPEDTAVYYCANRAPDTRLAPYEYDHWGQGTLVTVSS | 102 | 6.7 | 100 | 3.4 | – | – | – | – | – | – | – | – | – | – | – | – | – | % inh [3]: 80%; IC50 [3]: 0.1 nM; % inh [4]: 100%; IC50 [4]: 0.07 nM
DLLBII55D12 (VHH) VHH: EVQLVESGGGLVQPGGSLRLSCAASGFTFDDYAIGWFRQAPGKEPEGISCISSSGGITYYADSVKGRFTISRDNAKNTVYLQMNSLKPEDTAVYYCATPGIAACRGIHYTGQGTQVTVSS | – | – | – | – | 13.1 | 30 | 39.1 | 41 | 2.3 | ~7 | ~6 | 12.3 | no binding (tested: 2.5e-7 M) | no binding (tested: 2.5e-7 M) | – | – | – | –
DLLBII039 (VHH) VHH: EVQLVESGGGLVQPGGSLRLSCAASGFTIGSYDMSWVRRAPGKGPEWVSSISSGGGSTYYADYVKGRFTISRDNAKNTLYLQMNSLRPEDTAVYYCAADRYIWARQGEYWGAYEYDYWGQGTLVTVSS | 102 | 3.6 | 100 | 6.7 | – | – | – | – | – | – | – | – | – | – | – | – | – | –

More lines, main results first:

% inh [1] [%] | IC50 [1] [nM] | % inh [2] [%] | IC50 [2] [nM] | EC50 [5] [nM] | EC50 [6] [nM] | IC50 [7] [nM] | IC50 [8] [nM] | IC50 [9] [nM] | EC50 (read off the curve) [10] [nM] | EC50 (read off the curve) [11] [nM] | IC50 [12] [nM] | binding result [13] | binding result [14] | Kd [15] [nM] | koff [15] [s⁻¹] | kon [15] [M⁻¹ s⁻¹] | Binder | also measured
– | – | – | – | 4.1 | 8.7 | 22 | 33.7 | 1.6 | ~7 | ~4 | 6.9 | – | no binding (tested: 2.5e-7 M) | 9.4 | 0.0011 | 120000 | DLLBII56H08 (VHH) VHH: EVQLVESGGGLVQPGGSLRLSCAASGFTFDDYAIGWFRQAPGKEPEEISCISSSGGITYYADSVKGRFTISRDNAKNTVYLQMNSLKPEDTAVYYCATPGIAACRGIHYTGQGTQVTVSS | –
– | – | – | – | 7.9 | 83.4 | 53.9 | 49.5 | 2.2 | ~10 | ~10 | 17.3 | no binding (tested: 2.5e-7 M) | no binding (tested: 2.5e-7 M) | – | – | – | DLLBII57C11 (VHH) VHH: EVQLVESGGGLVQPGGSLRLSCTASGFTFDDYAIGWFRQAPGKEPEGISCISSSGSITYDADSVKGRFTISRDNAKNTVYLQMNSLKPEDTAVYYCATPGIAACRGIHYWGQGTQVTVSS | –
– | – | – | – | 44.3 | 244 | 28.7 | 49.6 | 5.4 | ~6 | ~6 | 33.9 | no binding (tested: 2.5e-7 M) | no binding (tested: 2.5e-7 M) | 45 | 0.0049 | 110000 | DLLBII56C04 (VHH) VHH: EVQLVESGGGLVQPGGSLRLSCTASGFTFDVYAIGWFRQAPGKEPEGISCISSSGSITYYADSVKGRFTTSRDSAKNTVYLQMNSLKPEDTAVYYCATPGIAACRGIHYWGQGTQVTVSS | –
